We go through 2 substances from article PMC4511852.

In experiment [1] the target is Avitag-RSL-His8 (RSL with biotin via the Avitag on the N-terminus and His8 on the C-terminus) (Ralstonia solanum). Nature of the experiment: SEC. (Size exclusion chromatography separates by hydrodynamic size, large species first.)
Experiment [2] concerns the target His8-RSL-Avitag (RSL with poly-histidine on the N-terminus and biotin via the Avitag on the C-terminus) (Ralstonia solanum). Briefly: SEC.

One may read the stoichiometry N as the number of molecules, sites or subunits per partner or assembly. “Avitag-RSL-His8 (RSL with biotin via the Avitag on the N-terminus and His8 on the C-terminus) (natural protein)”: in experiment [1], the stoichiometry N came to 2.

The substance “His8-RSL-Avitag (RSL with poly-histidine on the N-terminus and biotin via the Avitag on the C-terminus) (natural protein)” yielded a stoichiometry N in experiment [2] of 3.
